Measurements published in patent US20040077835A1, “Chemokine receptor modulators, production and use” (published 2004).
The star is where a group is joined. Nonanoyl = CCCCCCCCC(=O)*

Legend:
[1] = molecular target: T1, CCR5 (Homo sapiens (Human), UniProt P51681); assay: cell-based or functional assay
[2] = molecular target: T1, CCR5; assay: cell-based or functional assay; remark: listed apart in the source

Mean Relative Potency (IC50 in the envelope-mediated cell fusion assay, relative to AOP-RANTES = 100) [1] | Average Infectivity IC50 (cell-free viral infection assay) [2] [pM] | Cell-Fusion Result For Comparison (IC50) [2] [pM] | Binder
13 relative to AOP-RANTES = 100 |  |  | NNY-…-L19I-RANTES (20-68) (ligand, ends and bridges not checked) Nonanoyl-PYSSDTTPCCFAYIARPIPRAHIKEYFYTSGKCSNPAVVFVTRKNRQVCANPEKKWVREYINSLEMS
 | 24 | 97 | n-Nonanoyl-RANTES (2-68) (ligand, ends and bridges not checked) Nonanoyl-PYSSDTTPCCFAYIARPLPRAHIKEYFYTSGKCSNPAVVFVTRKNRQVCANPEKKWVREYINSLEMS

Continued, binder first:

Binder | Mean Relative Potency (IC50 in the envelope-mediated cell fusion assay, relative to AOP-RANTES = 100) [1] | Average Infectivity IC50 (cell-free viral infection assay) [2] [pM] | Cell-Fusion Result For Comparison (IC50) [2] [pM]
AOP-RANTES-K(palmitoyl)-G (ligand, N-terminal aminooxypentane in place of Ser 1; epsilon amino group of the Lys of the C-terminal extension carries glyoxylyl=AoA-ethylene diamine-palmitate ("palmitoyl"), joined by an oxime bond) PYSSDTTPCCFAYIARPLPRAHIKEYFYTSGKCSNPAVVFVTRKNRQVCANPEKKWVREYINSLEMSKG | 45 relative to AOP-RANTES = 100 |  | 
Aminooxypentane-RANTES (2-68) (ligand, ends and bridges not checked) {CH3‑(CH2)4‑O‑N:CH‑CO}-PYSSDTTPCCFAYIARPLPRAHIKEYFYTSGKCSNPAVVFVTRKNRQVCANPEKKWVREYINSLEMS | 100 relative to AOP-RANTES = 100 (arbitrary value of the control) | 145 | 480
NNY-PYSSDTTPCCFAYI-A16S-RANTES (17-68) (ligand, ends and bridges not checked) Nonanoyl-PYSSDTTPCCFAYISRPLPRAHIKEYFYTSGKCSNPAVVFVTRKNRQVCANPEKKWVREYINSLEMS | 15 relative to AOP-RANTES = 100 |  | 
